Sequences and labels used below:
B1: HDV Ribozyme (parent)
chain: GGCCGGCAUGGUCCCAGCCUCCUCGCUGGCGCCGGCUGGGCAACAUUCCGAGGGGACCGUCCCCUCGGUAAUGGCGAAUGGGACCCA

Variants of B1 are the subject of the data set. Nature of the data set: self-cleavage, relative activity (ratio to wild type); higher = more cleavage; co-transcriptional.
With G35U C75U, the self-cleavage amounted to 0.095.
As for C36G C58A, the figure is 0.201; as for C36G C58G, 0.0594.
With C36G C58U the figure was 0.128; with G35C G55A, 0.342.
With G35C G55C the figure was 0.366; with G35C G55U, 0.0615; with G35U G39U, 0.0941.
In the case of C36A G67U, the self-cleavage is 0.155.
Consider C36A G67A, for which the self-cleavage is 0.126.
As for C36A G67C, the figure is 0.208; as for G35U A51U, 0.471.
In the case of G35U G53U, the self-cleavage was found to be 0.288.
As for G35C C86U, the figure is 0.415.
As for C36A G76U, the figure is 0.119; as for C36A U46A, 0.244; as for G35C C48G, 0.485.
With G35C C48U the figure was 0.271.
Take G35A U47C: the self-cleavage stood at 0.489.
Consider G35A U47G, for which the self-cleavage amounted to 0.443.
As for G35U G40C, the figure is 0.136; as for G35C G40C, 0.185; as for C36A C48U, 0.116.
G35A U79A: the self-cleavage is 0.47.
As for G35A G40C, the figure is 0.163.
As for G35A C61A, the figure is 0.635.
In the case of G35A C61G, the self-cleavage came out at 0.465.
As for C36A G54C, the figure is 0.241; as for G35A G73A, 0.372; as for G35A G73U, 0.223.
Regarding G35A G73C, the self-cleavage was determined as 0.138.
For C36G A87G, the self-cleavage was found to be 0.138.
With C36G A87U, the self-cleavage worked out at 0.153.
For C36A A70C, the self-cleavage amounted to 0.128.
With G35C G38C the figure was 0.128; with G35C G38A, 0.155.
As for C36G C48A, the figure is 0.272; as for C36G C48U, 0.231; as for C36A U79G, 0.175.
As for C36A U79A, the figure is 0.0615.
On to G35C C62A, for which the self-cleavage was determined as 0.277.
With C36A G39U the figure was 0.0906; with C36A C57G, 0.0898; with C36A C57A, 0.297.
With C36A C66G the figure was 0.177.
With C36A C66U the figure was 0.134.
Take G35A G67C: the self-cleavage was found to be 0.564.
With G35A G67U the figure was 0.361; with G35A G67A, 0.328.
Consider G35C A77G, for which the self-cleavage was found to be 0.18.
For G35C A77U, the self-cleavage is 0.181.
As for G35C A77C, the figure is 0.0898.
With G35A G68U the figure was 0.584; with G35A G68C, 0.676; with G35A G68A, 0.496.
Regarding G35U G52A, the self-cleavage amounted to 0.483.
In the case of G35U G52U, the self-cleavage is 0.459.
On to C36G A70C, for which the self-cleavage was 0.
For the variant G35C G59C, the self-cleavage was 0.424.
As for G35C G59U, the figure is 0.204; as for C36A C61U, 0.138.
With C36A C61A the figure was 0.0536; with C36A A43C, 0.095; with C36A A43U, 0.198.
With G35C U69A the figure was 0.443; with G35C U69G, 0.277; with C36A G50A, 0.151.
For C36A G50U, the self-cleavage came to 0.0923.
As for G35C G73U, the figure is 0.181; as for G35C G73A, 0.0723.
As for G35C A83U, the figure is 0.0898.
For G35C C41U, the self-cleavage was found to be 0.0978.
As for G35C C75U, the figure is 0.0692.
Regarding G35U G76A, the self-cleavage amounted to 0.404.
As for G35U A45G, the figure is 0.365; as for G35U A70C, 0.354; as for G35C C49G, 0.0449.
For the variant G35C C49U, the self-cleavage was found to be 0.203.
As for C36A G59A, the figure is 0.164.
With G35C U72G the figure was 0.346; with G35C U72C, 0.156.
As for G35C U72A, the figure is 0; as for C36G C44G, 0.
With G35A C86G, the self-cleavage came to 0.739.
Take C36A G82C: the self-cleavage turned out to be 0.112.
In the case of G35C C57U, the self-cleavage turned out to be 0.185.
As for C36A A42U, the figure is 0.122.
As for G35U C66U, the figure is 0.459; as for G35C A42U, 0.0339; as for G35A C85A, 0.644.
On to G35A C85G, for which the self-cleavage was determined as 0.643.
As for G35U C48G, the figure is 0.312; as for G35U C48A, 0.49.
G35U G82C: the self-cleavage was 0.161.
As for G35U G82U, the figure is 0.162.
Turning to G35U A56C, the self-cleavage amounted to 0.358.
As for G35U A56U, the figure is 0.62.
As for G35U A56G, the figure is 0.393.
With G35U G59C the figure was 0.7.
Regarding G35U G59A, the self-cleavage turned out to be 0.415.
As for G35C C44A, the figure is 0.0573; as for G35C C44U, 0.0536.
Turning to G35U U60C, the self-cleavage is 0.317.
For the variant G35U U60A, the self-cleavage came out at 0.415.
As for G35U G55U, the figure is 0.508; as for G35U G38A, 0.0702; as for G35C U65A, 0.233.
Consider G35C U65G, for which the self-cleavage came to 0.314.
For G35C U65C, the self-cleavage is 0.219.
For the variant G35U C44A, the self-cleavage is 0.
With G35U C44G the figure was 0.0755; with G35U U79G, 0.0426; with G35U U79C, 0.0992.
As for G35C A43G, the figure is 0.111; as for G35C A43C, 0.17; as for C36A G53A, 0.218.
With C36A G53U the figure was 0.19.
C36A G53C: the self-cleavage is 0.0277.
As for G35A U37A, the figure is 0.0898; as for G35A U37C, 0.396.
As for G35A U37G, the figure is 0.163; as for G35U G80A, 0.101; as for G35U G80C, 0.0567.
As for C36A G73A, the figure is 0.104; as for C36A G73U, 0.0583; as for C36G A77G, 0.0791.
Regarding G35A C63U, the self-cleavage is 0.91.
In the case of G35A C63A, the self-cleavage worked out at 0.332.
With C36G A56G the figure was 0.0594.
As for C36G A56U, the figure is 0.111; as for C36G A56C, 0.158; as for C36A G74C, 0.0997.
With C36A G74A the figure was 0.
C36A G74U: the self-cleavage was 0.14.
As for C36G C57G, the figure is 0.162; as for C36G C57A, 0.177.
With G35C C36U the figure was 0.108.
With G35C C36A the figure was 0.119.
C36A A45G: the self-cleavage worked out at 0.256.
With C36A A45C the figure was 0; with G35U G73U, 0.19.
With G35U A71G the figure was 0.308.
Turning to G35U A71C, the self-cleavage came out at 0.237.
As for G35U A71U, the figure is 0.178; as for C36A A56G, 0.145; as for G35C G50U, 0.272.
As for G35C G50A, the self-cleavage came out at 0.0528.
With G35C C64U the figure was 0.348; with G35U U37C, 0.428.
As for G35U U37G, the figure is 0.095; as for G35U U37A, 0.155; as for C36A C84A, 0.192.
As for G35C A71C, the figure is 0.
With C36G A42C, the self-cleavage worked out at 0.0811.
C36G A42U: the self-cleavage was 0.113.
Regarding C36G A42G, the self-cleavage was 0.147.
With G35C G39A the figure was 0.178; with G35C C58A, 0.175; with G35C G81A, 0.0332.
As for G35C G81C, the figure is 0.19; as for C36A C44G, 0.125; as for C36A C41G, 0.18.
As for C36A C41U, the figure is 0.171.
Regarding C36A C41A, the self-cleavage was determined as 0.102.
With G35C U46C the figure was 0.185.
As for G35A C66A, the figure is 0.415; as for G35A C66G, 0.655.

These data come from the RNAGym collection of RNA variant scans (doi:10.7554/elife.80360).
